Results as given in patent US20200173960A1.

molecular target: trastuzumab; experiment: ELISA Kit A (anti-idiotype capture) of trastuzumab 50 ug/mL pre-bound with ADA; trastuzumab:ADA 5:1

Row | Substance | Accuracy (%) ELISA [%]
1 | HCA176 (antibody) | 72.1
2 | MAB11130 (antibody) | 72.8
3 | HCA177 (antibody) | 92
4 | HCA168 (Fab) | 66.8

molecular target: trastuzumab; experiment: ELISA Kit A (anti-idiotype capture) of trastuzumab 0.5 ug/mL pre-bound with ADA; trastuzumab:ADA 1:1

Row | Substance | Accuracy (%) ELISA [%]
5 | HCA176 (antibody) | 78.7
6 | MAB11130 (antibody) | 0.632
7 | HCA177 (antibody) | 110
8 | HCA168 (Fab) | 84.1

molecular target: trastuzumab; experiment: ELISA Kit B (HER2 capture, anti-human IgG Fc detection) of trastuzumab 0.5 ug/mL pre-bound with ADA; trastuzumab:ADA 10:1

Row | Substance | Accuracy (%) Kit B [%]
9 | HCA176 (antibody) | 101
10 | MAB11130 (antibody) | 88.9
11 | HCA177 (antibody) | 97.4
12 | HCA168 (Fab) | 95.5

molecular target: trastuzumab; experiment: ELISA Kit A (anti-idiotype capture) of trastuzumab 0.5 ug/mL pre-bound with ADA; trastuzumab:ADA 1:100

Row | Substance | Accuracy (%) ELISA [%]
13 | HCA176 (antibody) | 82.6
14 | HCA177 (antibody) | 106
15 | HCA168 (Fab) | 72.2

molecular target: trastuzumab; experiment: ELISA Kit A (anti-idiotype capture) of trastuzumab 0.5 ug/mL pre-bound with ADA; trastuzumab:ADA 10:1

Row | Substance | Accuracy (%) ELISA [%]
16 | HCA176 (antibody) | 116
17 | MAB11130 (antibody) | 102
18 | HCA177 (antibody) | 103
19 | HCA168 (Fab) | 95.2

molecular target: trastuzumab; experiment: ELISA Kit A (anti-idiotype capture) of trastuzumab 0.5 ug/mL pre-bound with ADA; trastuzumab:ADA 5:1

Row | Substance | Accuracy (%) ELISA [%]
20 | HCA176 (antibody) | 98
21 | MAB11130 (antibody) | 96.9
22 | HCA177 (antibody) | 112
23 | HCA168 (Fab) | 102

molecular target: trastuzumab; experiment: ELISA Kit A (anti-idiotype capture) of trastuzumab 0.5 ug/mL pre-bound with ADA; trastuzumab:ADA 1:5

Row | Substance | Accuracy (%) ELISA [%]
24 | HCA176 (antibody) | 75.4
25 | HCA177 (antibody) | 99.4
26 | HCA168 (Fab) | 67.7

molecular target: trastuzumab; experiment: method not stated; affinity listed for the purchased ADA

Row | Substance | Kd [nM]
27 | HCA176 (antibody) | 0.4
28 | HCA177 (antibody) | 0.02
29 | HCA168 (Fab) | 0.02

molecular target: trastuzumab; experiment: cell-based or functional assay

Row | Substance | Accuracy (%) nSMOL; trastuzumab 0.5 ug/mL; trastuzumab:ADA 1:1 [%] | Accuracy (%) nSMOL; trastuzumab 0.5 ug/mL; trastuzumab:ADA 1:2 [%] | Accuracy (%) nSMOL; trastuzumab 0.5 ug/mL; trastuzumab:ADA 1:5 [%] | Accuracy (%) nSMOL; trastuzumab 0.5 ug/mL; trastuzumab:ADA 1:10 [%] | Accuracy (%) nSMOL; trastuzumab 0.5 ug/mL; trastuzumab:ADA 1:50 [%] | Accuracy (%) nSMOL; trastuzumab 0.5 ug/mL; trastuzumab:ADA 1:100 [%] | Accuracy (%) nSMOL; trastuzumab 0.5 ug/mL; trastuzumab:ADA 5:1 [%] | Accuracy (%) nSMOL; trastuzumab 0.5 ug/mL; trastuzumab:ADA 10:1 [%] | Accuracy (%) nSMOL; trastuzumab 50 ug/mL; trastuzumab:ADA 1:1 [%] | Accuracy (%) nSMOL; trastuzumab 50 ug/mL; trastuzumab:ADA 5:1 [%]
30 | HCA176 (antibody) | 99.9 | 93.4 | 101 | 89.1 | 86.6 | 88.7 | 93.3 | 106 | 94.8 | 96.7
31 | MAB11130 (antibody) | 102 | 97.8 | 108 | 109 | 115 | 100 | 103 | 105 | 102 | 105
32 | HCA177 (antibody) | 96.1 | 84.4 | 78.7 | 81 | 89.5 | 74.1 | 98.7 | 98.4 | 88 | 99.4
33 | HCA168 (Fab) | 106 | 102 | 93 | 107 | 86 | 84.8 | 113 | 109 | 92.9 | 92.8

same assay, conditions: not given

Row | Substance | Accuracy (%) nSMOL; trastuzumab 50 ug/mL; trastuzumab:ADA 10:1 [%] | Accuracy (%) nSMOL; trastuzumab 50 ug/mL; trastuzumab:ADA 100:1 [%] | Accuracy (%) nSMOL; trastuzumab first immobilized on Protein A; trastuzumab:ADA 1:1 [%] | Accuracy (%) nSMOL; trastuzumab first immobilized on Protein A; trastuzumab:ADA 5:1 [%] | Accuracy (%) nSMOL; trastuzumab first immobilized on Protein A; trastuzumab:ADA 10:1 [%] | Accuracy (%) nSMOL; trastuzumab first immobilized on Protein A; trastuzumab:ADA 100:1 [%] | inhibitory effect on quantification values (nSMOL), ratio 1:1 [%]
34 | HCA176 (antibody) | 104 | 94.7 | 102 | 98.3 | 102 | 93.5 | –
35 | MAB11130 (antibody) | 110 | 102 | 96.2 | 108 | 105 | 109 | –
36 | HCA177 (antibody) | 103 | 96.2 | 89.2 | 97.3 | 103 | 94.7 | 10
37 | HCA168 (Fab) | 102 | 89.5 | 94.5 | 94.3 | 101 | 107 | –

molecular target: trastuzumab; experiment: ELISA Kit A (anti-idiotype capture) of trastuzumab 50 ug/mL pre-bound with ADA; trastuzumab:ADA 100:1

Row | Substance | Accuracy (%) ELISA [%]
38 | HCA176 (antibody) | 84.6
39 | MAB11130 (antibody) | 83.5
40 | HCA177 (antibody) | 98
41 | HCA168 (Fab) | 84.9

molecular target: trastuzumab; experiment: ELISA Kit A (anti-idiotype capture) of trastuzumab 0.5 ug/mL pre-bound with ADA; trastuzumab:ADA 1:10

Row | Substance | Accuracy (%) ELISA [%]
42 | HCA176 (antibody) | 76.6
43 | HCA177 (antibody) | 108
44 | HCA168 (Fab) | 62.2

molecular target: trastuzumab; experiment: ELISA Kit A (anti-idiotype capture) of trastuzumab 50 ug/mL pre-bound with ADA; trastuzumab:ADA 10:1

Row | Substance | Accuracy (%) ELISA [%]
45 | HCA176 (antibody) | 69.6
46 | MAB11130 (antibody) | 74.2
47 | HCA177 (antibody) | 85.3
48 | HCA168 (Fab) | 84.4

molecular target: trastuzumab; experiment: ELISA Kit B (HER2 capture, anti-human IgG Fc detection) of trastuzumab 0.5 ug/mL pre-bound with ADA; trastuzumab:ADA 1:100

Row | Substance | Accuracy (%) Kit B [%]
49 | HCA176 (antibody) | 11.7
50 | MAB11130 (antibody) | 4.49
51 | HCA168 (Fab) | 3.32

molecular target: trastuzumab; experiment: ELISA Kit B (HER2 capture, anti-human IgG Fc detection) of trastuzumab 0.5 ug/mL pre-bound with ADA; trastuzumab:ADA 1:1

Row | Substance | Accuracy (%) Kit B [%]
52 | HCA176 (antibody) | 36.1
53 | MAB11130 (antibody) | 3.69
54 | HCA177 (antibody) | 46
55 | HCA168 (Fab) | 42.4

molecular target: trastuzumab; experiment: ELISA Kit A (anti-idiotype capture) of trastuzumab 0.5 ug/mL pre-bound with ADA; trastuzumab:ADA 1:50

Row | Substance | Accuracy (%) ELISA [%]
56 | HCA176 (antibody) | 73.1
57 | HCA177 (antibody) | 112
58 | HCA168 (Fab) | 64.5

molecular target: trastuzumab; experiment: ELISA Kit A (anti-idiotype capture) of trastuzumab 0.5 ug/mL pre-bound with ADA; trastuzumab:ADA 1:2

Row | Substance | Accuracy (%) ELISA [%]
59 | HCA176 (antibody) | 75.2
60 | HCA177 (antibody) | 99.9
61 | HCA168 (Fab) | 82.1

molecular target: trastuzumab; experiment: ELISA Kit B (HER2 capture, anti-human IgG Fc detection) of trastuzumab 0.5 ug/mL pre-bound with ADA; trastuzumab:ADA 1:10

Row | Substance | Accuracy (%) Kit B [%]
62 | HCA176 (antibody) | 3.93
63 | MAB11130 (antibody) | 1.36
64 | HCA177 (antibody) | 0.962
65 | HCA168 (Fab) | 6.4

molecular target: trastuzumab; experiment: ELISA Kit A (anti-idiotype capture) of trastuzumab 50 ug/mL pre-bound with ADA; trastuzumab:ADA 1:1

Row | Substance | Accuracy (%) ELISA [%]
66 | HCA176 (antibody) | 57.3
67 | MAB11130 (antibody) | 2.75
68 | HCA177 (antibody) | 84.5
69 | HCA168 (Fab) | 81.4
